Results reported in patent publication US20070092942A1 (published 2007).
Positions count from the first letter of the chain named. Names and notes keep the numbering of the source.

B1: EBV205 (enzyme)
chain: MSNGDWGQSQRTRGTGPVRGIRTMDVNAPGGGSGGSALRILGTASCNQAHCKFGRFAGIQCVSNCVLYLVKSFLAGRPLTSRPELDEVLDEGARLDALMRQSGILKGHEMAQLTDVPSSVVLRGGGRVHIYRSAEIFGLVLFPAQIANSAVVQSLAEVLHGSYNGVAQFILYICDIYAGAIIIETDGSFYLFDPHCQKDAAPGTP
notes: range 1-205; not shown: N-terminal His-tag from pET28
B2: EBV205 C61A (enzyme)
chain: B1 chain with C61A
notes: range 1-205; also called EBV205 active site mutant (C61A); not shown: N-terminal His-tag from pET28

What was measured:
[1] = target: T1, HA-tagged Ub-vinylmethyl ester (UniProt P0CG47 1-75); assay: 1 uM enzyme with 2 uM HAUbVME, SDS-PAGE silver stain and anti-HA immunoblot
T1 construct: also called HAUbVME; HA-UbVME

[2] = target: T1, HA-tagged Ub-vinylmethyl ester; assay: HAUbVME labelling, SDS-PAGE and anti-HA immunoblot

| Binder | binding result [1] | binding result [2] |
| --- | --- | --- |
| B1 | binds |  |
| B2 |  | no binding (tested: 2 uM HAUbVME, 1 uM enzyme) |
